From paper PMC9388093

Target: T1, rPfTPx-1 (thioredoxin peroxidase 1) (Plasmodium falciparum, UniProt Q8IL80 1-195)
T1 sequence: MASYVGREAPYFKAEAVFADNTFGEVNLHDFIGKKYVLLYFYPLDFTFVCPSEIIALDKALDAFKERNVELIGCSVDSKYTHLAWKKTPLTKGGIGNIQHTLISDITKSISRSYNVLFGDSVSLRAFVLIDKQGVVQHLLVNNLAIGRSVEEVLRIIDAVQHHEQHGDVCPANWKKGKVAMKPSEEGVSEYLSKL
Assay: EMSA

B1: IntPE (PE) RNA probe, fluorescent (ssRNA)
RNA: AUCACAUACAUAUACACAAACACUUAUACAUACACAUA
Does B1 bind?
Result: binds
